Measurements published in the supplement of paper PMC10567573.

B1: MED27 (parent)
chain: YNENVYTEDGKLDIWSKSNYQVFQ

Variants of: B1
Experiment: protein stability index of a GFP-peptide fusion (GPS, HEK-293T) (PSI 1-6); higher = more stable
Conditions: c terminus: a fixed tail appended
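Further: lentivirally expressed fusions sorted by FACS into six bins by GFP to DsRed ratio, PSI derived from sequencing read proportions per bin multiplied by bin number.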

Q: Which protein stability index does the source give for YNEEVYTEDGKLDIWSKSNYQVFQ here?
A: 2.73

Q: With YNEHVYTEDGKLDIWSKSNYQVFQ as the variant, how does the protein stability index read?
A: 2.04

Q: With YNEFVYTEDGKLDIWSKSNYQVFQ as the variant, how does the protein stability index read?
A: 1.93

Q: Which protein stability index does the source give for YNEMVYTEDGKLDIWSKSNYQVFQ here?
A: 2

Q: For CNENVYTEDGKLDIWSKSNYQVFQ, which protein stability index is on record?
A: 2.9

Q: Which protein stability index does the source give for KNENVYTEDGKLDIWSKSNYQVFQ here?
A: 3.28

Q: For TNENVYTEDGKLDIWSKSNYQVFQ, which protein stability index is on record?
A: 3.4

Q: With YNENVYTEDGKLDIWSKSNDQVFQ as the variant, how does the protein stability index read?
A: 3.38

Q: Which protein stability index does the source give for YNENVYTEDGKLDIWSKSNRQVFQ here?
A: 2.59

Q: Which protein stability index does the source give for YNENVYTEDGKLDIWSKSNHQVFQ here?
A: 2.58

Q: With YNENVYTEDGKLDIWSKSNGQVFQ as the variant, how does the protein stability index read?
A: 2.62

Q: Which protein stability index does the source give for YNENVYTEDGKLDIWSKSNKQVFQ here?
A: 2.76

Q: For YNENVYTEDGKLDIWSKSNAQVFQ, which protein stability index is on record?
A: 2.49

Q: For YNENVYTSDGKLDIWSKSNYQVFQ, which protein stability index is on record?
A: 1.7

Q: With YNENVYTRDGKLDIWSKSNYQVFQ as the variant, how does the protein stability index read?
A: 1.55

Q: For YNENVYTDDGKLDIWSKSNYQVFQ, which protein stability index is on record?
A: 1.84

Q: With YNENVYTPDGKLDIWSKSNYQVFQ as the variant, how does the protein stability index read?
A: 1.68

Q: With YNENVYTEDGKLDIWSKSNYQVFT as the variant, how does the protein stability index read?
A: 2.23

Q: Which protein stability index does the source give for YNENVYTEDGKLDIWSKSNYQVFV here?
A: 1.43

Q: For YNENVYTEDGKLDIWSKSNYQVFP, which protein stability index is on record?
A: 1.81

Q: For YNENVYTEDGKLDIWSKSNYQVFS, which protein stability index is on record?
A: 1.37

Q: With YNENVYTEDGKLDIWSKSNYQVFF as the variant, how does the protein stability index read?
A: 1.74

Q: With YNENVYTEDGKLDIWSKANYQVFQ as the variant, how does the protein stability index read?
A: 2.34

Q: For YNENVYTEDGKLDIWSKDNYQVFQ, which protein stability index is on record?
A: 3.09

Q: With YNENVYMEDGKLDIWSKSNYQVFQ as the variant, how does the protein stability index read?
A: 1.75

Q: Which protein stability index does the source give for YNENVYIEDGKLDIWSKSNYQVFQ here?
A: 1.72

Q: Which protein stability index does the source give for YNENVYTEDGKLDIWKKSNYQVFQ here?
A: 2.04

Q: With YNENVYTEDGKLDIWGKSNYQVFQ as the variant, how does the protein stability index read?
A: 2.33

Q: Which protein stability index does the source give for YNENVYTEDGKLDIWRKSNYQVFQ here?
A: 1.78

Q: With YNENVYTEDGKLDIWQKSNYQVFQ as the variant, how does the protein stability index read?
A: 2.26

Q: Which protein stability index does the source give for YNENVYTEDGKLDIWHKSNYQVFQ here?
A: 1.93

Q: For YNENVYTEDGKLDIWLKSNYQVFQ, which protein stability index is on record?
A: 1.82

Q: With YNENVYTEDMKLDIWSKSNYQVFQ as the variant, how does the protein stability index read?
A: 2.73

Q: For YNENVYTEDFKLDIWSKSNYQVFQ, which protein stability index is on record?
A: 1.65

Q: Which protein stability index does the source give for YNENVYTEDWKLDIWSKSNYQVFQ here?
A: 1.99

Q: For YNENVYTEDLKLDIWSKSNYQVFQ, which protein stability index is on record?
A: 2.17

Q: Which protein stability index does the source give for YNENVYTEDTKLDIWSKSNYQVFQ here?
A: 2.45

Q: With YNENVYTEDHKLDIWSKSNYQVFQ as the variant, how does the protein stability index read?
A: 2.61

Q: For YNENVYTEDCKLDIWSKSNYQVFQ, which protein stability index is on record?
A: 1.97

Q: For YNENVYTEDQKLDIWSKSNYQVFQ, which protein stability index is on record?
A: 2.5

Q: For YNENVYTEDAKLDIWSKSNYQVFQ, which protein stability index is on record?
A: 2.3

Q: With YNENVYTEDPKLDIWSKSNYQVFQ as the variant, how does the protein stability index read?
A: 2.42

Q: With YNENVYTEDRKLDIWSKSNYQVFQ as the variant, how does the protein stability index read?
A: 2.21

Q: Which protein stability index does the source give for YNENVYTEDGKLDIWSKSNYDVFQ here?
A: 2.41

Q: For YNENVYTEDGKLDIWSKSNYFVFQ, which protein stability index is on record?
A: 1.79

Q: For YNENVYTEDGKLDIWSKSNYLVFQ, which protein stability index is on record?
A: 2.07

Q: Which protein stability index does the source give for YNENVYTEDGKLDIWSKSNYPVFQ here?
A: 1.98

Q: For YNENVYTEDGKLDIWSKSNYTVFQ, which protein stability index is on record?
A: 2.76

Q: Which protein stability index does the source give for YNENVYTEDGKLDIWSKSNYIVFQ here?
A: 2.44

Q: Which protein stability index does the source give for YNENVYTEDGKLDIWSKSNYRVFQ here?
A: 2.23

Q: For YNENVYTEDGKLDSWSKSNYQVFQ, which protein stability index is on record?
A: 3.23

Q: With YNENVYTEDGKLDAWSKSNYQVFQ as the variant, how does the protein stability index read?
A: 2.9

Q: With YNENVYTEDGKLDEWSKSNYQVFQ as the variant, how does the protein stability index read?
A: 3.87

Q: Which protein stability index does the source give for YNENVYTEDGKLDQWSKSNYQVFQ here?
A: 3.07

Q: With YNENVYTEDGKLDLWSKSNYQVFQ as the variant, how does the protein stability index read?
A: 2.49

Q: With YNENVYTEDGKLDWWSKSNYQVFQ as the variant, how does the protein stability index read?
A: 2.15

Q: Which protein stability index does the source give for YNENVYTEDGKLDTWSKSNYQVFQ here?
A: 2.78

Q: With YNENVYTEDGKLDCWSKSNYQVFQ as the variant, how does the protein stability index read?
A: 2.92

Q: Which protein stability index does the source give for YNENVYTEDGKEDIWSKSNYQVFQ here?
A: 3.14

Q: With YNENVYTEDGKLNIWSKSNYQVFQ as the variant, how does the protein stability index read?
A: 1.76

Q: For YNENVYTEDGKLAIWSKSNYQVFQ, which protein stability index is on record?
A: 2.12

Q: With YNENVYTEDGKLVIWSKSNYQVFQ as the variant, how does the protein stability index read?
A: 3

Q: For YNENVYTEDGKLMIWSKSNYQVFQ, which protein stability index is on record?
A: 1.79

Q: For YNENVYTEDGKLEIWSKSNYQVFQ, which protein stability index is on record?
A: 2.36

Q: For YNENVYTEDGKLKIWSKSNYQVFQ, which protein stability index is on record?
A: 2.55

Q: For YNENVYTEDGKLGIWSKSNYQVFQ, which protein stability index is on record?
A: 1.88

Q: For YNENVYTEDGKLFIWSKSNYQVFQ, which protein stability index is on record?
A: 1.84

Q: For YNQNVYTEDGKLDIWSKSNYQVFQ, which protein stability index is on record?
A: 2.17

Q: Which protein stability index does the source give for YNWNVYTEDGKLDIWSKSNYQVFQ here?
A: 1.44

Q: Which protein stability index does the source give for YNENVYTEDGKLDIWSISNYQVFQ here?
A: 1.74

Q: For YNENVYTEDGKLDIWSTSNYQVFQ, which protein stability index is on record?
A: 1.84

Q: Which protein stability index does the source give for YNENVYTEDGKLDIWSASNYQVFQ here?
A: 2.24

Q: For YNENVYTEMGKLDIWSKSNYQVFQ, which protein stability index is on record?
A: 1.69

Q: Which protein stability index does the source give for YNENVYTERGKLDIWSKSNYQVFQ here?
A: 1.7

Q: With YNENVKTEDGKLDIWSKSNYQVFQ as the variant, how does the protein stability index read?
A: 2.34

Q: With YNENVATEDGKLDIWSKSNYQVFQ as the variant, how does the protein stability index read?
A: 2.62

Q: With YNENVVTEDGKLDIWSKSNYQVFQ as the variant, how does the protein stability index read?
A: 3.02

Q: With YNENVHTEDGKLDIWSKSNYQVFQ as the variant, how does the protein stability index read?
A: 2.95

Q: Which protein stability index does the source give for YNENVWTEDGKLDIWSKSNYQVFQ here?
A: 2.04

Q: Which protein stability index does the source give for YNENVLTEDGKLDIWSKSNYQVFQ here?
A: 2.38

Q: For YNENVYTEDGKLDIRSKSNYQVFQ, which protein stability index is on record?
A: 3.64

Q: For YNENVYTEDGKLDISSKSNYQVFQ, which protein stability index is on record?
A: 3.83

Q: With YNENVYTEDGKLDIGSKSNYQVFQ as the variant, how does the protein stability index read?
A: 4.19

Q: For YNENVYTEDGKLDIKSKSNYQVFQ, which protein stability index is on record?
A: 4.03

Q: Which protein stability index does the source give for YNENVYTEDGKLDIASKSNYQVFQ here?
A: 4.13

Q: For YNENVYTEDGTLDIWSKSNYQVFQ, which protein stability index is on record?
A: 2.43

Q: With YNENVYTEDGLLDIWSKSNYQVFQ as the variant, how does the protein stability index read?
A: 1.59

Q: For YNENPYTEDGKLDIWSKSNYQVFQ, which protein stability index is on record?
A: 2.35

Q: For YNENTYTEDGKLDIWSKSNYQVFQ, which protein stability index is on record?
A: 2.67

Q: With YNENHYTEDGKLDIWSKSNYQVFQ as the variant, how does the protein stability index read?
A: 2.95

Q: For YNENQYTEDGKLDIWSKSNYQVFQ, which protein stability index is on record?
A: 3.06

Q: Which protein stability index does the source give for YNENRYTEDGKLDIWSKSNYQVFQ here?
A: 2.25

Q: With YNENIYTEDGKLDIWSKSNYQVFQ as the variant, how does the protein stability index read?
A: 2.73

Q: With YNENNYTEDGKLDIWSKSNYQVFQ as the variant, how does the protein stability index read?
A: 3.01
